Results on two molecules are retold here after article PMC6520340, “Development of a ribonuclease containing a G4-specific binding motif for programmable RNA cleavage”.

For the series, the target named is RNase HI catalytic domain (wild-type) (Bacillus halodurans, UniProt Q9KEI9 59-196). The series is described as follows: EMSA; 10 uM DNA, 50 uM protein; 100 mM K+; Native 10% PAGE in 1X TBE, 20 mM potassium phosphate, 100 mM KCl, pH 7.0; UV shadowing; temperature not stated. The settings on record: protein: recombinant.
Sequence of RNase HI catalytic domain (wild-type) (Q9KEI9 59-196): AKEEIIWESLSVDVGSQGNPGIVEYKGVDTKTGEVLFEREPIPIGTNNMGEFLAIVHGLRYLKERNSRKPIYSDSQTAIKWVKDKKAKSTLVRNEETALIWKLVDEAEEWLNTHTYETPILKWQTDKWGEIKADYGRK

Consider TTGGGTGGGTGGGTGGGTTCAACGACGACGGCATCATC (structured_DNA) [B1], for which the binding result (parallel G4 with 3' single-stranded tail) is “no binding”. For the molecule TTGACTAAGTGCCTTAGTTCAACGACGACGGCATCATC (ssDNA) [B0], the binding result (single strand) is “no binding”.
